Source: patent publication US20130309177A1

Legend:
[1] = biological target: somatostatin receptors on AR42J cells (rat); assay: apparent IC50; competition with ^111In-DTPA-octreotide on AR42J cells, 3 h at RT
[2] = biological target: gastrin-releasing peptide receptor on PC-3 cells (UniProt P30550); assay: competition with ^125I-BBN on PC-3 cells, repeat experiment (250 to 2 nM competitor)
Sequence of gastrin-releasing peptide receptor on PC-3 cells (P30550 whole entry): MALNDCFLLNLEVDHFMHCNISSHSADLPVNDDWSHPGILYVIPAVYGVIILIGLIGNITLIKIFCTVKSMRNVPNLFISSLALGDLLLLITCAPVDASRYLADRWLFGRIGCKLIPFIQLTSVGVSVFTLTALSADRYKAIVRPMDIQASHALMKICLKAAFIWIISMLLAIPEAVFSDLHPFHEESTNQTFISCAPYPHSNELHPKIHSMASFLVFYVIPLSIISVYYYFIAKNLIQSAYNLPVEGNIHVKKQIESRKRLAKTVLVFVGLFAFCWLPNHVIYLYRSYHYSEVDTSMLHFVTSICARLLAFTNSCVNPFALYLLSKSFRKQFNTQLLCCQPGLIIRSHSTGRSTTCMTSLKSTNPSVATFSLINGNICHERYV

Sequence of somatostatin receptors on AR42J cells (rat) (P30680 whole entry): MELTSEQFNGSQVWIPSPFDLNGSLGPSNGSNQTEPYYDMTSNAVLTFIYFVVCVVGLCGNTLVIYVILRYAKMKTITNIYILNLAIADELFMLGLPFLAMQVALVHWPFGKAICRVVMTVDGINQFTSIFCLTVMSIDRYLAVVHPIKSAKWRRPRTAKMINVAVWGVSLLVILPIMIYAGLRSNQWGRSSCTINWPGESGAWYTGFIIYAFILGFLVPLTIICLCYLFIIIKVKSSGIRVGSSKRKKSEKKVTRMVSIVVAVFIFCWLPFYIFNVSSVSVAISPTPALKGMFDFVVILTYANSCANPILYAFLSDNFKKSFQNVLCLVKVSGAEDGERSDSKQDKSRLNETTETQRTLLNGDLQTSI

Row | Substance | IC50 [1] [nM] | IC50 [2] [nM]
1 | ^115In-DTPA-octreotide (peptide) | 6.3 | 
2 | ^69Ga-IMP466 (gallium complex of IMP 466) (peptide) | 13 | 
3 | commercially available BBN peptide |  | 24.4
4 | ^19F-IMP466 (Al^19F complex of IMP 466, NOTA-D-Phe-Cys-Phe-D-Trp-Lys-Thr-Cys-Throl) (peptide) | 3.6 | 
